Assay results taken from the supplement of paper PMC9732359.
± gives the uncertainty stated by the source.

Assay: protein stability index of a GFP-peptide fusion (yeast GPS) (PSI 1-4); higher = more stable; sorted into four equal gates, so the index is relative within each strain
Method in brief: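 Mid-log yeast cultures in leucine-free medium, carrying a pooled plasmid library, were sorted into four equal gates by their GFP/Cherry fluorescence ratio. Each plasmid expressed Cherry along with GFP fused upstream of a tiled 17-residue yeast protein peptide. Plasmids recovered from each gate were PCR-amplified and Illumina-sequenced, with reads assigned to strains by barcodes. The protein stability index was obtained by summing each gate's read frequency weighted by its gate number.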

| Sequence | protein stability index (doa10∆) | protein stability index (pdr5∆) | protein stability index (san1∆) | protein stability index (ubr1∆) |
| --- | --- | --- | --- | --- |
| NGTISKTGKKNKVAKKN [SRP14] | 3.51 ± 0.16 | 3.45 ± 0.19 | 3.09 ± 0.13 | 3.17 ± 0.076 |
| ISYKKGAASNRTKFVRS [RPL36A] | 3.06 ± 0.1 | 3.2 ± 0.1 | 3.13 ± 0.11 | 3.26 ± 0.22 |
| REIQTAVRLILPGELAK [HTB1] | 3.25 ± 0.088 | 3.14 ± 0.06 | 2.55 ± 0.088 | 3.08 ± 0.051 |
| VDQEMLYEIILAANYLN [SKP1] | 1.63 ± 0.051 | 1.72 ± 0.05 | 1.92 ± 0.093 | 1.84 ± 0.057 |
| KREIQEALSEKPTREPT [RPC53] | 2.96 ± 0.11 | 2.86 ± 0.098 | 3.05 ± 0.11 | 3.15 ± 0.1 |
| ARVTGGMKVKADRDESS [RPS14B] | 2.5 ± 0.072 | 2.92 ± 0.067 | 3.12 ± 0.05 | 3.03 ± 0.043 |
| VKTTLVSLTQLRCVKYL [RPC82] | 1.4 ± 0.13 | 1.27 ± 0.079 | 1.16 ± 0.25 | 1.37 ± 0.11 |
| EGRLLDNVQANDPAREK [SNF12] | 2.8 ± 0.11 | 3.21 ± 0.065 | 2.96 ± 0.05 | 3.18 ± 0.042 |
| SSKYAYMMNSQSPRGKI [YLR018C/POM34] | 2.83 ± 0.062 | 2.69 ± 0.065 | 2.75 ± 0.044 | 2.78 ± 0.038 |
| REGSSARTIKATLPYIK [RPB2] | 2.42 ± 0.067 | 3.17 ± 0.077 | 2.85 ± 0.061 | 2.69 ± 0.059 |
| CPYCYKKRREYFPEGYN [SIR2] | 2.43 ± 0.11 | 2.41 ± 0.16 | 2.61 ± 0.2 | 2.75 ± 0.069 |
| VQSKARYTVRTFGIRRN [RPL11A] | 1.78 ± 0.083 | 1.86 ± 0.073 | 1.35 ± 0.11 | 1.53 ± 0.086 |
| TKENLEVSGENVVEADL [QCR2] | 3.33 ± 0.27 | 3.6 ± 0.09 | 3.52 ± 0.1 | 2.8 ± 0.14 |
| NRGNKKRHRSSYYDNDL [YML031W/NDC1] | 3.02 ± 0.13 | 3.29 ± 0.095 | 3.24 ± 0.072 | 3 ± 0.11 |
| VTTNINWRSFNAKIIDA [SRP68] | 3.14 ± 0.081 | 3 ± 0.083 | 3.06 ± 0.059 | 3.18 ± 0.05 |
| TFDGIRMSSEEVNSLLL [GRR1] | 3.03 ± 0.099 | 3.04 ± 0.15 | 3.14 ± 0.15 | 2.92 ± 0.074 |
| SSLLYTYDENDDFFKEL [ESC2] | 2.52 ± 0.13 | 2.8 ± 0.17 | 2.62 ± 0.15 | 2.87 ± 0.094 |
| EVLTYVNYLISNTMYSV [YJL039C/NUP192] | 2.45 ± 0.056 | 2.35 ± 0.054 | 2.45 ± 0.044 | 2.5 ± 0.042 |
| GALIHKAGLMTGGISGD [SMC1] | 2.63 ± 0.16 | 2.73 ± 0.11 | 2.72 ± 0.06 | 2.75 ± 0.087 |
| MNKDQAEKYQERSLRQK [SNM1] | 3.3 ± 0.089 | 3.25 ± 0.089 | 3.35 ± 0.069 | 3.53 ± 0.093 |
| ILQIREEIPSKSWDDSV [RRP6] | 2.27 ± 0.078 | 2.76 ± 0.092 | 2.32 ± 0.084 | 2.7 ± 0.055 |
| RRFYKNWYKSKKKAFTK [RPL3] | 2.98 ± 0.16 | 2.8 ± 0.11 | 1.6 ± 0.2 | 1.78 ± 0.08 |
| KRSFSSTLKSFFTNPNK [YOR098C/NUP1] | 2.39 ± 0.039 | 2.31 ± 0.04 | 2.32 ± 0.052 | 2.28 ± 0.033 |
| ECPVGEFLINEGTPINN [RPN14] | 2.99 ± 0.1 | 2.39 ± 0.069 | 2.89 ± 0.11 | 2.31 ± 0.085 |
| CYAPRPSAGPHKLRESL [RPS4A] | 2.78 ± 0.083 | 3.12 ± 0.091 | 2.87 ± 0.11 | 3.07 ± 0.072 |

| Sequence | protein stability index (doa10∆) | protein stability index (pdr5∆) | protein stability index (san1∆) | protein stability index (ubr1∆) |
| --- | --- | --- | --- | --- |
| IEEQDKKVQALQSDKNF [ITC1] | 3.23 ± 0.076 | 3.11 ± 0.054 | 3.14 ± 0.045 | 3.16 ± 0.036 |
| LLNEYRPHQSRESLIML [MED7] | 2.31 ± 0.074 | 2.15 ± 0.12 | 2.01 ± 0.12 | 1.98 ± 0.059 |
| DKRIVISIDSWPTTHKY [DIS3] | 1.92 ± 0.065 | 1.52 ± 0.11 | 1.99 ± 0.16 | 2.06 ± 0.087 |
| DTSLCINGEPSIHVNRV [RRI1] | 2.99 ± 0.081 | 3.04 ± 0.073 | 2.99 ± 0.053 | 3.04 ± 0.05 |
| IDRKVEFSLPDLEGRAN [RPT1] | 3.15 ± 0.097 | 3.37 ± 0.1 | 3.08 ± 0.17 | 3.18 ± 0.1 |
| LQLTTNTEQGDSDELGG [SNM1] | 3.25 ± 0.16 | 3.55 ± 0.29 | 3.29 ± 0.11 | 3.09 ± 0.24 |
| LDFQTNKRLCDEIATIQ [RPS17A] | 2.53 ± 0.091 | 2.98 ± 0.071 | 2.96 ± 0.057 | 3.18 ± 0.072 |
| YQRKRLVTQHKAKYNTP [RPL5] | 3.21 ± 0.3 | 2.8 ± 0.2 | – | – |
| ESLTNSNMFDNSADVDM [YGL100W/SEH1] | 3.34 ± 0.085 | 3.57 ± 0.086 | 3.48 ± 0.056 | 3.36 ± 0.093 |
| FSKGDADVLVDRVVSSD [SRP72] | 3.28 ± 0.091 | 3.2 ± 0.098 | 3.02 ± 0.098 | 3.04 ± 0.081 |
| VDNVTLESYKTQAKKLY [SRP72] | 3.02 ± 0.11 | 2.87 ± 0.14 | – | 2.89 ± 0.11 |
| LAVCDELGNMTMLITGQ [SIN4] | 2.21 ± 0.06 | 2.55 ± 0.046 | 2.23 ± 0.061 | 2.02 ± 0.045 |
| TNVEDPLAKKQTVRLIK [SIR2] | 2.82 ± 0.077 | 3.08 ± 0.067 | 2.77 ± 0.056 | 2.96 ± 0.06 |
| APSDFSENQRQIFCVFS [GRR1] | 2.93 ± 0.071 | 2.58 ± 0.078 | 2.76 ± 0.064 | 2.65 ± 0.057 |
| GDIVRMLETAGFSMNNP [SMC3] | 3.08 ± 0.095 | 3.26 ± 0.1 | 3.04 ± 0.089 | 3.16 ± 0.054 |
| KKNIQKAKSNQTQREKA [IRR1] | 2.59 ± 0.099 | 2.65 ± 0.11 | 2.77 ± 0.11 | 2.73 ± 0.066 |
| VLEYLAAEILELAGNAA [HTA1] | 2.85 ± 0.1 | 2.44 ± 0.1 | 2.54 ± 0.081 | 2.84 ± 0.1 |
| NDNEDDDEEYDYNDVEV [BRR2] | 3.28 ± 0.077 | 3.22 ± 0.079 | 3.34 ± 0.06 | 3.4 ± 0.052 |
| KSWLNRLNNWLFGWNDL [YMR153W/NUP53] | 2.63 ± 0.057 | 2.33 ± 0.045 | 2.03 ± 0.065 | 2.68 ± 0.04 |
| SAGLFGSKPAGGTSLFG [YGL172W/NUP49] | 2.6 ± 0.081 | 2.9 ± 0.1 | 2.27 ± 0.098 | 2.66 ± 0.047 |
| QTGIFVYQNNITPSAMK [RPB5] | 3.06 ± 0.091 | 2.55 ± 0.16 | 3.11 ± 0.075 | 3.36 ± 0.12 |
| YDEDPYGFEDESAPITA [RPB2] | 3.05 ± 0.071 | 3.18 ± 0.054 | 3.24 ± 0.048 | 3.17 ± 0.065 |
| SAQAETEALLLEHDVEY [DIS3] | 3.19 ± 0.087 | 3.22 ± 0.098 | 3.3 ± 0.095 | 3.15 ± 0.066 |
| LLGIFDDIFIPQNMLFE [RPC25] | 2.33 ± 0.15 | 2.7 ± 0.17 | 2.52 ± 0.095 | 2.69 ± 0.1 |
